Measurements: patent publication US20220363752A1 (VERSEAU THERAPEUTICS, published 2022)
Changes are numbered by the printed parent chain. Primed or numbered codes have the meaning given here. Biotin′ = not defined here

T1: LRRC25(96-115) biotin peptide (human, not fully specified; N-terminal acetyl; C-terminal GGK-Biotin; native Cys changed to Ser)
T1 construct: also called Biotin LRRC25 (96-115) peptide
T1 peptide: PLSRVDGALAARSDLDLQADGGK

T2: LRRC25(141-159) biotin peptide (human, not fully specified; N-terminal acetyl; C-terminal GGK-Biotin; native Cys changed to Ser)
T2 peptide: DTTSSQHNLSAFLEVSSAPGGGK

T3: LRRC25(126-145) biotin peptide (human, not fully specified; N-terminal acetyl; C-terminal GGK-Biotin; native Cys changed to Ser)
T3 peptide: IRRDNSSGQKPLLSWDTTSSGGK

T4: LRRC25(150-165) biotin peptide (human)
T4 peptide: Ac-SAFLEVSSAPGLASATGG-{Biotin′}

T5: LRRC25(21-40) biotin peptide (human, not fully specified; N-terminal NH2; C-terminal GGK-Biotin; native Cys changed to Ser)
T5 peptide: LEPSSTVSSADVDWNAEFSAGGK

T6: LRRC25(36-55) biotin peptide (human, not fully specified; N-terminal NH2; C-terminal GGK-Biotin; native Cys changed to Ser)
T6 peptide: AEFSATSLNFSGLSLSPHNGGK

T7: LRRC25(111-130) biotin peptide (human, not fully specified; N-terminal acetyl; C-terminal GGK-Biotin; native Cys changed to Ser)
T7 peptide: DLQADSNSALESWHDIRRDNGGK

T8: LRRC25(66-85) biotin peptide (human, not fully specified; N-terminal acetyl; C-terminal GGK-Biotin)
T8 peptide: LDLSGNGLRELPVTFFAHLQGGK

T9: LRRC25(51-69) biotin peptide (human, not fully specified; N-terminal acetyl; C-terminal GGK-Biotin)
T9 peptide: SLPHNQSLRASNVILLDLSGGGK

T10: LRRC25(81-100) biotin peptide (human, not fully specified; N-terminal acetyl; C-terminal GGK-Biotin)
T10 peptide: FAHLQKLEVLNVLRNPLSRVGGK

B1: anti-LRRC25 chimeric antibody 2C07 (antibody, human IgG4, V domains shown)
VH: QITLKESGPGILQPSQTLSLTCSFSGFSLTTSGMGVSWIRQPSGKGLEWLAHIYWDDDKRYNPSLRSRLTISKDTSSNQVVLKLTNVDTADTATYYCARRARDYYNSGHWYFDVWGAGTTVTVSS
VL: DVVMTQTPKSMSMSVGERVTLSCKASENVGTYVSWYQQKPDQSPKLLIFGASNRYTGVPDRFTGSGSATDFTLTISSVQAEDLADYHCGQTYSFPFTFGSGTKLEIKR
B2: anti-LRRC25 chimeric antibody 2C08 (antibody, human IgG4, V domains shown)
VH: B1 VH with I2V, T30S, R66K, I71L, V81F, L84I, N86S, A101P, N106G, S107G
VL: B1 VL with V2I, T7S, S22T, P40A, D41E, F49Y, S77N, A80T, T91S, F94Y
B3: anti-LRRC25 chimeric antibody 1E01 (antibody, human IgG4, V domains shown)
VH: DVQLVESGGGLVKPGGSLKLSCAASGFTFSNYAMSWVRQTPEKRLEWVASISRGGNTYYPDSVKGRFTISRDNARNILYLQMSSLRSEDTAIYYCTRGNYGSSLFAYWGQGTLVTVSA
VL: DIVLTQSPASLTVSLGQRATISCRASKSVSTSGYSYMHWYQQKPGQPPKLLIYLASNLESGVPARFSGSGSRTDFTLTIDPVEADDAATYYCQQNNEDPWTFGGGTKLEIKR
notes: also called mAb 1E01
B4: anti-LRRC25 chimeric antibody 3C07 (antibody, human IgG4, V domains shown)
VH: B3 VH with D1E, Q3K, V5D, N31R, N56S, N73I, N76D, I92M, T96A
VL: DIVMTQAAFSNPVTLGTSASISCRSSKSLLHSNGITYLYWYLQKPGQSPQLLIYQMSNLASGVPDRFSSSGSGTDFTLRISRVEAEDVGVYYCAQNLELPWTFGGGTKLEIKR
B5: anti-LRRC25 chimeric antibody 2A07 (antibody, human IgG4, V domains shown)
VH: EVKLDESGGGLVQPGGSLKLSCATSGFTFSDYYMYWVRQTPEKRLEWVAYISNGGGSTYYPDTVKGRFTISRDNAKNTLYLQMSRLKSEDTAMYYCARSTAVSQMDYWGQGTSVTVSS
VL: DIVLTQSPAIMSASPGEKVTLTCSASSSVRSSYLNWYQQKPGSSPKLWIHGTSNLASGVPARFSGSGSGTSYSLTISSMEAEDAASYFCHQWSSYPPTFGAGTKLELKR

Legend:
[1] = target: T1, LRRC25(96-115) biotin peptide; experiment: ELISA, 20 nM antibody, biotinylated antigen on streptavidin plate
Outline: (§1)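 Plate-bound streptavidin captured biotinylated 16- to 20-mer LRRC25 ECD overlapping peptides (2 ug/mL), with biotinylated human LRRC25-His as positive control. Chimeric anti-LRRC25 antibodies at 20 nM, 45 min at 37° C in duplicate; detection by HRP anti-human IgG and TMB at A450 nm.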

[2] = target: T11, biotinylated human LRRC25-His protein (human, UniProt Q8N386 21-165, biotinylated (sites not given)); experiment: as above
T11 construct: also called Biotin LRRC25-His; biotinylated LRRC25 protein
T11 sequence (Q8N386 other isoform, or with tags, fused parts or gaps): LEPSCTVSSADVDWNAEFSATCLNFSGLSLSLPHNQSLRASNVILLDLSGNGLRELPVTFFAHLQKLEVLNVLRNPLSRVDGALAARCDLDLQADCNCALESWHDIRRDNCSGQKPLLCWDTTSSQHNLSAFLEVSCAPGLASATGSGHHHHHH
Outline: as §1

[3] = target: T12, His-tagged cynomolgus monkey LRRC25 extracellular domain protein, cyno LRRC25-His (cynomolgus monkey); experiment: ELISA, plate-immobilized antigen
T12 construct: The entry holds the extracellular domain, a GSG linker and the His tag
T12 sequence (chain, as listed by the source limits assumed): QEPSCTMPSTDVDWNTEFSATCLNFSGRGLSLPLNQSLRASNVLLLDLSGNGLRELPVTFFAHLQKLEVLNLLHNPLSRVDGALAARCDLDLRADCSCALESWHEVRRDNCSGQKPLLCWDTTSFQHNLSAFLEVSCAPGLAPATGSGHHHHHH
Outline: (§2)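 Wells coated overnight at 4 °C with 1 ug/mL antigen in PBS pH 7.4. Antibodies titrated from 500 nM in 3-fold steps in 1% skimmed milk/PBS, 1 h at room temperature, then HRP anti-human IgG; TMB read at A450 nm and EC50 taken from binding curves.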

[4] = target: T13, His-tagged human LRRC25 extracellular domain protein, human LRRC25-His (human, UniProt Q8N386 21-165); experiment: ELISA, plate-immobilized antigen
T13 construct: The entry holds the extracellular domain, a GSG linker and the His tag; also called LRRC25(ECD)-HIS
T13 sequence (Q8N386 other isoform, or with tags, fused parts or gaps): as the sequence (Q8N386 other isoform, or with tags, fused parts or gaps) above
Outline: as §2

[5] = target: T2, LRRC25(141-159) biotin peptide; experiment: peptide ELISA
Outline: as §1

[6] = target: T3, LRRC25(126-145) biotin peptide; experiment: peptide ELISA
Outline: as §1

[7] = target: T4, LRRC25(150-165) biotin peptide; experiment: peptide ELISA
Outline: as §1

[8] = target: T5, LRRC25(21-40) biotin peptide; experiment: peptide ELISA
Outline: as §1

[9] = target: T6, LRRC25(36-55) biotin peptide; experiment: peptide ELISA
Outline: as §1

[10] = target: T7, LRRC25(111-130) biotin peptide; experiment: peptide ELISA
Outline: as §1

[11] = target: T1, LRRC25(96-115) biotin peptide; experiment: peptide ELISA
Outline: as §1

[12] = target: T8, LRRC25(66-85) biotin peptide; experiment: peptide ELISA
Outline: as §1

[13] = target: T9, LRRC25(51-69) biotin peptide; experiment: peptide ELISA
Outline: as §1

[14] = target: T10, LRRC25(81-100) biotin peptide; experiment: peptide ELISA
Outline: as §1

[15] = target: T13, His-tagged human LRRC25 extracellular …; experiment: ELISA, antibody titrated on plate-immobilized Human LRRC25(ECD)-His, A450nm against -log [IgG] (M), left panel
Method: To establish the relative binding strengths of anti-LRRC25 antibodies against human LRRC25, and their cross-reactivity with cynomolgus monkey LRRC25, antibody binding curve analyses were performed and EC50 values against plate-immobilized recombinant human and cyno LRRC25 proteins were determined.
A typical ELISA was performed by coating overnight in PBS, pH 7.4, at 4° C. in high binding microtiter wells with 1 ug/mL/100 ul per well of human LRRC25-His or cyno LRRC25-His. An anti-human LRRC25 antibody (2A3, LS Bio, LS-C174039-100) and anti-HIS-HRP (Miltenyi Biotec; 130-092-783) served as coating controls for the human and cyno LRRC25 proteins, respectively. […] Anti-LRRC25 antibodies were added (100 ul per well) at 500 nM and serially diluted 3-fold in assay buffer (1% skimmed milk in PBS, pH 7.4). The plate was incubated with gentle agitation for 1 h at room temperature. The plate was washed 3× and HRP-conjugated secondary antibody in assay buffer added [100 ul per well; goat anti-human IgG (Jackson Immunoresearch, cat #715-035-150)], and the plate was incubated as before. Antibody bound to plate-immobilized LRRC25(ECD)-HIS was determined at A450 nm using HRP substrate (3,3′,5,5′-tetramethylbenzidine (TMB); eBioscience; 00-4201-56); 100 μl/well).

Row | Binder | absorbance (A450) [1] | absorbance (A450) [2] | EC50 [3] | EC50 [4] | binding result [5] | binding result [6] | binding result [7] | binding result [8] | binding result [9] | binding result [10] | binding result [11] | binding result [12] | binding result [13] | binding result [14] | EC50 (read off the curve) [15]
1 | B1 | 0.054 A450 | 2.6 A450 | 0.65 nM | 0.39 nM | no binding (tested: 20 nM) | no binding (tested: 20 nM) | no binding (tested: 20 nM) | no binding (tested: 20 nM) | no binding (tested: 20 nM) | no binding (tested: 20 nM) | no binding (tested: 20 nM) | no binding (tested: 20 nM) | no binding (tested: 20 nM) | no binding (tested: 20 nM) | –
2 | B2 | 0.049 A450 | 2.39 A450 | 1.4 nM | 2 nM | no binding (tested: 20 nM) | no binding (tested: 20 nM) | no binding (tested: 20 nM) | no binding (tested: 20 nM) | no binding (tested: 20 nM) | no binding (tested: 20 nM) | no binding (tested: 20 nM) | no binding (tested: 20 nM) | no binding (tested: 20 nM) | no binding (tested: 20 nM) | –
3 | B3 | 2.56 A450 | 1.7 A450 | 83.2 nM | 1.3 nM | no binding (tested: 20 nM) | no binding (tested: 20 nM) | no binding (tested: 20 nM) | no binding (tested: 20 nM) | no binding (tested: 20 nM) | no binding (tested: 20 nM) | – | no binding (tested: 20 nM) | no binding (tested: 20 nM) | no binding (tested: 20 nM) | ~1 nM
4 | B4 | 0.134 A450 | 0.714 A450 | ~200 nM | 16.1 nM | no binding (tested: 20 nM) | no binding (tested: 20 nM) | no binding (tested: 20 nM) | no binding (tested: 20 nM) | no binding (tested: 20 nM) | no binding (tested: 20 nM) | no binding (tested: 20 nM) | no binding (tested: 20 nM) | no binding (tested: 20 nM) | no binding (tested: 20 nM) | –
5 | B5 | 0.052 A450 | 2.44 A450 | 4.6 nM | 0.63 nM | no binding (tested: 20 nM) | no binding (tested: 20 nM) | no binding (tested: 20 nM) | no binding (tested: 20 nM) | no binding (tested: 20 nM) | no binding (tested: 20 nM) | no binding (tested: 20 nM) | no binding (tested: 20 nM) | no binding (tested: 20 nM) | no binding (tested: 20 nM) | –
